Values of other authors in PMC9871372.

Target: NisA precursor peptide (Lactococcus lactis) (UniProt P13068)
Chain of UniProt P13068 (P13068 24-57): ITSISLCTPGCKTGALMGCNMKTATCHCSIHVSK

Kd: 1.05 µM
Substance: NisB (from UniProt P20103)
